From publication PMC4610412 (2016)
Where no end group is shown, it is not given here. [ ]: non-standard residue; d: D form. pT = C[C@@H](OP(=O)(O)O)[C@H](N)C(=O)O; pS = N[C@@H](COP(=O)(O)O)C(=O)O

Key:
trans-locked inhibitor = target: T1, trans-locked inhibitor (also: trans-locked alkene isostere, place not given here); experiment: NMR titration
T1 chain: FF[pS]PR

cis-locked inhibitor = target: T2, cis-locked inhibitor (also: cis-locked alkene isostere, place not given here); experiment: NMR titration
T2 chain: FF[pS]PR

pCdc25C = target: T3, pCdc25C (Homo sapiens); experiment: ITC
T3 chain: EQPL[pT]PVTDL

B1: Pin1 PPIase domain (isolated) PPIase (protein)
chain: PARVRCSHLLVKHSQSRRPSSWRQEKITRTKEEALELINGYIQKIKSGEEDFESLASQFSDCSSAKARGDLGAFSRGQMQKPFEDASFALRTGEMSGPVFTDSGIHIILRTE
Kd (trans-locked inhibitor): 66 µM | Kd (cis-locked inhibitor): 7 µM | Kd (pCdc25C): > 1000 µM
